From publication doi:10.1101/2022.04.10.487811 come the findings set out here.

As usually defined, the Kd is the equilibrium constant for the complex coming apart.

The assay deals with HA H7 HK17 (A/Hong Kong/125/2017(H7N9)) hemagglutinin (influenza A virus A/Hong Kong/125/2017(H7N9)). The assay is described as follows: BLI. On the technique in general: BLI is a label-free optical method that tracks binding on a fibre tip over time.

Regarding MEDI8852 Fab (wildtype), the Kd is 210 pM.
